The text below walks through data of US7608412.

In this test the target is GST-aPKCt. As to the kind of experiment: co-immunoprecipitation from HEK cells transfected with HA-GSK3β, GST-aPKCt and myc-p62; anti-HA IP, anti-GST blot, densitometry; with against without p62.

Hemagglutinin (HA)-tagged GSK3β (enzyme), sequence (P49841 whole entry): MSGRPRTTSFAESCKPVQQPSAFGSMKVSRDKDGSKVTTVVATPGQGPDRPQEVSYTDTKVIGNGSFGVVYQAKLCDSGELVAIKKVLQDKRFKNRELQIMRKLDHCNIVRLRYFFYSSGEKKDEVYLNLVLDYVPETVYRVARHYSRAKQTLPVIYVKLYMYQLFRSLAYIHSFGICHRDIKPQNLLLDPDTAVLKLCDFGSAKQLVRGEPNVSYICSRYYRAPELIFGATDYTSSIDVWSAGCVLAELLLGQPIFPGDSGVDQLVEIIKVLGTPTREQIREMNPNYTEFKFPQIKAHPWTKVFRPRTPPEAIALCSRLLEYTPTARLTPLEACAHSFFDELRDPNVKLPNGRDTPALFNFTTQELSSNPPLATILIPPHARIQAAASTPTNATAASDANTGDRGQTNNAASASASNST

As to “Hemagglutinin (HA)-tagged GSK3β (enzyme)”, the fold enhancement of the interaction in the presence of p62 came to 2 fold.
